# Experimental data from patent US20200308575A1 (TWIST BIOSCIENCE, published 2020).
# Numbering of substitutions follows the chain as printed.
# B1: PD1-1 (antibody, V domains shown)
# VH: QVQLVQSGAEVKKPGASVKVSCKASGYTFSHYGISWVRQAPGQGLEWMGWVSAYSGNTRYAQKLQGRVTMTTDTSTSTAYMELRSLRSDDTAVYYCARDATYSSGSGYWGQGTLVTVSS
# VL: SYELMQPPSVSVSPGQTARITCSGDALPTQYAYWYQQKPGQAPVLVIYQDNERPSGIPERFSGSSSGTTVTLTISGVQAEDEADYYCQSADNSITYRVFGGGTKLTVL
# notes: IgG in the assay
# B2: PD1-7 (antibody, V domains shown)
# VH: B1 VH with S30T, S35T, V51I, N57S, R59N, T101D, S104I
# VL: B1 VL with T29N, Y33F, Q49K
# notes: IgG in the assay
# B3: PD1-2 (antibody, V domains shown)
# VH: B1 VH with T28S, H31N, R59N, T101D, S103A
# VL: B1 VL with A26E, T29N, Q49K, N51T, E52Q
# notes: IgG in the assay
# B4: PD1-8 (antibody, V domains shown)
# VH: B1 VH with V51I, A53P, R59K, A100N, T101D
# VL: B1 VL with A26E, T29K, Q49K, P54A
# notes: IgG in the assay
# Target: T1, program cell death protein 1 (PD-1) (UniProt Q15116 25-167, limits assumed)
# Test: cell-based or functional assay
# T1 sequence (Q15116 25-167 limits assumed): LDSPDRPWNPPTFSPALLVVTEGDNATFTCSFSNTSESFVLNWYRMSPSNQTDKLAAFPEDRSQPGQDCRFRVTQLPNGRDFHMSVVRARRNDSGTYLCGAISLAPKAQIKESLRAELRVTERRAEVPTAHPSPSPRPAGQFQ
Binder,Bmax (RU) (PD-1/PD-L1 blockade assay),IC50 (PD-1/PD-L1 blockade assay)
B1,693 RU,0.434 nM
B2,642 RU,0.896 nM
B3,661 RU,0.848 nM
B4,436 RU,1.97 nM

# Target: T1, program cell death protein 1 (PD-1)
# Test: SPR (Carterra LSA), IgG, monovalent affinity
row,Binder,Kd
1,B1,4.52 nM

# Target: T1, program cell death protein 1 (PD-1)
# Test: SPR (Carterra LSA), IgG, monovalent affinity
# Remark: another data set of the same source
row,Binder,Kd
1,B1,4.5 nM
2,B2,10.5 nM
3,B3,9.8 nM
4,B4,78.1 nM
